Test [1] has as its target T1, human FAP (Homo sapiens, UniProt Q12884).
T1 construct: the biotinylated His, Avi tag, human FAP (26-760, FAP-H82Q6); His; Avi tag (biotinylated); purchased AcroBiosystems FAP-H82Q6
T1 sequence (Q12884 26-760): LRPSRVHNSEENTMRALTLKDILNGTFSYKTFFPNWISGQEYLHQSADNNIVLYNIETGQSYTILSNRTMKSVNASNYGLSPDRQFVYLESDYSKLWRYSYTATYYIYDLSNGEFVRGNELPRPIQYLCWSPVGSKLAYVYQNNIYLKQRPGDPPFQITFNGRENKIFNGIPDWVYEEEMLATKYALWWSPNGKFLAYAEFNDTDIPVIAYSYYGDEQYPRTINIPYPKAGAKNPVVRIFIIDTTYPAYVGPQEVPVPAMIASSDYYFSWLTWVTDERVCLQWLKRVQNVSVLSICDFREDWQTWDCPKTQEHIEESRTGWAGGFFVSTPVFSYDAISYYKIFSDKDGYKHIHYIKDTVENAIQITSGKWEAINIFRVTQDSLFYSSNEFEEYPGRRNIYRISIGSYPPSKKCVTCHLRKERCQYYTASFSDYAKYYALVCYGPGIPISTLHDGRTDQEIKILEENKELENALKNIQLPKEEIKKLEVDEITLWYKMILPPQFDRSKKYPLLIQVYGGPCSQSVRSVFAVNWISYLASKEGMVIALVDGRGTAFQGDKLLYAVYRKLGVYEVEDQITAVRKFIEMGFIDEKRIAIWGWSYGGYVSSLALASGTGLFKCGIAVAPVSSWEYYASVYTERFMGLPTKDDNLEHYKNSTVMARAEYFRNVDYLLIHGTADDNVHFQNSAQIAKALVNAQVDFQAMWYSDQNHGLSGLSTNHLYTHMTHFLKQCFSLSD
Kind of test: Surface plasmon resonance (SPR) for peptide affinity, human FAP. The format is binding. To be noted: read-out: h. FAP, SPR, KD. As to the method: Peptide affinities (KD) were determined by SPR using a Biacore™ 8K device (Cytiva) towards the following proteins: biotinylated His, Avi tag, human FAP (26-760, FAP-H82Q6), biotinylated His, Avi tag, mouse FAP (26-761, FAP-M82Q5), His tag, human DPP4 (34-766, DP4-H82E3), all purchased from AcroBiosystems and His tag, mouse DPP4 (29-760, 954-SE) from R&D Systems. The FAP proteins and their homologous were diluted to a concentration of 2 μg/mL into acetate buffer pH 5.5, then immobilized onto a CM5 sensorchip (Cytiva, BR-1005-30) to reach a response around 2000 R U. The running buffer HBS-EP+pH 7.6 (20× from Teknova CAT. No: H8022) contained 10 mM HEPES pH 7.6, 150 mM NaCl, 3 mM EDTA, 0.05% Tween20 and 2% DMSO. Experiments were carried out at 25° C. using a flow rate of 30 μL/min. Compounds were tested in single cycle kinetic mode at 8 different concentrations. Curve fitting was performed using the Biacore™ 8K evaluation software. The sensorgrams were fitted by applying a 1:1 binding model to calculate kinetic rate constants and equilibrium dissociation constants (KD).
For this assay, the setup had the same conditions (flow rate, running buffer, peptide dilution) as described above for the CM5 method. The oligo CAP reagent obtained in the CAPture Kit (Ref. 28920234) was 1/5 diluted into running buffer and used with a contact time of 300 s at a flow rate of 2 μL/min. The human and mouse FAP constructs described above were used (from AcroBiosystems or produced in house). The FAP proteins were diluted to a concentration of 2 μg/mL into acetate pH 5.5, 0.05% Tween20 and used with a contact time of 600 s at a flow rate of 10 μL/min. The peptides were tested with an association time of 280 s followed by a dissociation time of 3000 s at a flow rate of 30 μL/min. The regeneration was done using the regeneration solution (8 M guanidine-HCl, 1 M NaOH) as obtained with a contact time of 270 s at a flow rate of 10 μL/min. […] The compounds marked with an asterisk were tested against human and mouse DDP4.
(In general: Surface plasmon resonance follows binding to a sensor surface in real time, without labels.)

Test [2] deals with T2, mouse FAP (Mus musculus, UniProt P97321).
T2 construct: biotinylated His, Avi tag, mouse FAP (26-761, FAP-M82Q5); His; Avi tag (biotinylated); purchased AcroBiosystems FAP-M82Q5
T2 sequence (P97321 26-761): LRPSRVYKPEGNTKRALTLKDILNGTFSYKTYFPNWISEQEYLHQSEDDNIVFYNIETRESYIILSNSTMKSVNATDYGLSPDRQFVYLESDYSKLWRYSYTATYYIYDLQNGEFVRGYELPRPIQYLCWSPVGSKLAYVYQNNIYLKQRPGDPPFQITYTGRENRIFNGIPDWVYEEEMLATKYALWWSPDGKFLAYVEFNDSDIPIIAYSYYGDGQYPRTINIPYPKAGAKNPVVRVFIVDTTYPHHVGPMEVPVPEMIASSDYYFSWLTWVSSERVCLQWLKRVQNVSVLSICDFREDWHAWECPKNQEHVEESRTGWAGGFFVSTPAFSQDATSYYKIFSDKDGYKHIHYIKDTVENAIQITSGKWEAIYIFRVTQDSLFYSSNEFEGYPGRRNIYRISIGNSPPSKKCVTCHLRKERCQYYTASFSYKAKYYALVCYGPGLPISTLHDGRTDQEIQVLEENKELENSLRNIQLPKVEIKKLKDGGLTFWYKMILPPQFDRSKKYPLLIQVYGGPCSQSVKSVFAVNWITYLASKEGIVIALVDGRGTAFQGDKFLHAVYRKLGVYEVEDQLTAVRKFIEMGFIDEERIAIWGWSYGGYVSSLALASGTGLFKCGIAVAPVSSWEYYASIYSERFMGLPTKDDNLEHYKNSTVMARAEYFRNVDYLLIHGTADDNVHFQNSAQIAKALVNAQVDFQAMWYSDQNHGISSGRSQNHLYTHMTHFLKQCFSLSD
The test can be described thus: Surface plasmon resonance (SPR) for peptide affinity, mouse FAP. The class given is binding. In short, it runs like this:
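Biotinylated His/Avi-tagged FAP ectodomains (human 26-760, mouse 26-761) captured or immobilized on Biacore sensor chips; peptides run at 25 °C in HBS-EP+ pH 7.6 with 2% DMSO, single-cycle kinetics, 8 concentrations. KD from 1:1 binding-model fit of sensorgrams.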

For test [3], the target named is T1, human FAP. Kind of test: Enzymatic FAP competition assay (Z-Gly-Pro-AMC fluorescence), human FAP. To be noted: read-out: h. FAP, Enz., IC50. The format is biochemical. The method, boiled down:
(§1)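 Biotinylated His/Avi-tagged FAP ectodomain (human 26-760, mouse 26-761) at 0.01 nM, preincubated 24 h with peptides (14 concentrations, up to 1 μM) in pH 7.5 phosphate, 150 mM NaCl, 0.05% Tween20, 1% DMSO. Then 50 μM Z-Gly-Pro-AMC, 4 h at 22-24° C; AMC fluorescence (380/460 nm) gave IC50 from duplicate points.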

For test [4], the target named is T2, mouse FAP. The test can be described thus: Enzymatic FAP competition assay (Z-Gly-Pro-AMC fluorescence), mouse FAP. The class given is biochemical. To be noted: read-out: m. FAP, Enz., IC50. In short, it runs like this:
as §1

Where a name gives a salt, the structure may show the parent alone. Starred links: 1 amine or outer side, 2 acyl side, 3 side chain; linkers in the order of their positions; H or OH if unused. Non-standard residues stand in square brackets, D forms with d. Residues, ends and D or L forms follow the SMILES beside them. Groups on a side chain read outwards from the residue. *: point of attachment. F(4amPEG2NHDOTA-Lu) = lutetium complex of (S)-2,2',2''-(10-(1-(4-(2-amino-2-carboxyethyl)phenyl)-3,12-dioxo-5,8-dioxa-2,11-diazatridecan-13-yl)-1,4,7,10-tetraazacyclododecane-1,4,7-triyl)triacetic acid (Phe with 4-aminomethyl-PEG2-DOTA-Lu), O=C([O-])CN1CCN(CC(=O)[O-])CCN(CC(=O)NCCOCCOCC(=O)NCc2ccc(C[C@H](N[*:1])C(=O)[*:2])cc2)CCN(CC(=O)[O-])CC1.[Lu+3]; F(4amPEG2NHDOTA-Ga) = gallium complex of (S)-2,2',2''-(10-(1-(4-(2-amino-2-carboxyethyl)phenyl)-3,12-dioxo-5,8-dioxa-2,11-diazatridecan-13-yl)-1,4,7,10-tetraazacyclododecane-1,4,7-triyl)triacetic acid (Phe with 4-aminomethyl-PEG2-DOTA-Ga), O=C([O-])CN1CCN(CC(=O)[O-])CCN(CC(=O)NCCOCCOCC(=O)NCc2ccc(C[C@H](N[*:1])C(=O)[*:2])cc2)CCN(CC(=O)[O-])CC1.[Ga+3]; F(4amPEG2NHNODAGA-Ga) = gallium complex of 2,2'-(7-(1-(4-((S)-2-amino-2-carboxyethyl)phenyl)-15-carboxy-3,12-dioxo-5,8-dioxa-2,11-diazapentadecan-15-yl)-1,4,7-triazonane-1,4-diyl)diacetic acid (Phe with 4-aminomethyl-PEG2-NODAGA-Ga), O=C([O-])CN1CCN(CC(=O)[O-])CCN(C(CCC(=O)NCCOCCOCC(=O)NCc2ccc(C[C@H](N[*:1])C(=O)[*:2])cc2)C(=O)[O-])CC1.[Ga+3]; F(4amPEG2NHAAZTA-Lu) = lutetium complex of (S)-2,2'-((6-(1-(4-(2-amino-2-carboxyethyl)phenyl)-3,12-dioxo-5,8-dioxa-2,11-diazahexadecan-16-yl)-1,4-bis(carboxymethyl)-1,4-diazepan-6-yl)azanediyl)diacetic acid (Phe with 4-aminomethyl-PEG2-AAZTA-L; COpipzaa = 4-(carboxymethyl)piperazine-1-carbonyl, O=C(O)CN1CCN(C(=O)*)CC1; F(4amPEG2NHRDOTAGA-Ga) = Phe with 4-aminomethyl-PEG2-NH-DOTAGA, Ga complex; hS(Pr) = O-propyl-L-homoserine, CCCOCC[C@H](N[*:1])C(=O)[*:2]; Phe(4-CH2NH2) = NCc1ccc(C[C@H](N)C(=O)O)cc1; Piperazinyl(4-CH2COOH) = O=C(O)CN1CCN(*)CC1; NMeF = CN[C@@H](Cc1ccccc1)C(=O)O; Aoc(2) = CCCCCC[C@H](N)C(=O)O; Ahp(2) = CCCCC[C@H](N)C(=O)O; AEEA = NCCOCCOCC(=O)O; CO = O=C([*:1])[*:2]

In general, Kd refers to the free concentration of one partner at which half of the binding sites on the other are occupied at equilibrium, for simple one-to-one binding. A word on the IC50: it is the concentration that gives 50% inhibition. Turning to `CCCCCC[C@@H]1NC(=O)[C@H](Cc2ccc(CNC(=O)COCCOCCN)cc2)NC(=O)[C@H](Cc2ccccc2)N(C)C(=O)CNC(=O)CNC(=O)[C@H]2CCCN2C(=O)[C@H](CC(=O)O)NC(=O)[C@H](CCCCNC(=O)N2CCN(CC(=O)O)CC2)NC(=O)CNC(=O)[C@H](Cc2c[nH]c3ccccc23)NC1=O` [Example A1, 2-((9S,12S,15S,18S,24S,27S,32aR)-18-((1H-indol-3-yl)methyl)-12-(4-((2-(2-(2-aminoethoxy)ethoxy)acetamido)methyl)benzyl)-9-benzyl-24-(4-(4-(carboxymethyl)piperazine-1-carboxamido)butyl)-15-hexyl-8-methyl-1,4,7,10,13,16,19,22,25,28-decaoxodotriacontahydropyrrolo[1,2-a][1,4,7,10,13,16,19,22,25,28]decaazacyclotriacontin-27-yl)acetic acid TFA salt] (cyclo([Aoc(2)]WGK([CO-Piperazinyl(4-CH2COOH)])D[dP]GG[NMeF][Phe(4-CH2NH2)](AEEA))), the Kd in test [1] was less than 0.007 nM; in test [2], less than 0.018 nM. For the same compound, the concentration for half-maximal inhibition (IC50) in test [3] is 0.009 nM; in test [4] it was 0.028 nM.

As for “Gly-Gly-NMePhe-F(4amPEG2NHAAZTA-Lu)-hS(Pr)-Trp-Gly-K(COpipzaa)-Asp-D-Pro (cyclo(GG[NMeF][F(4amPEG2NHAAZTA-Lu)][hS(Pr)]WGK(COpipzaa)D[dP]); also: Lu complex) [Example C32]”, the Kd in test [2] was less than 0.027 nM. In addition, the results for the IC50 in test [3] and in test [4] were 0.017 nM and 0.044 nM, respectively.

Turning to “Gly-Gly-NMePhe-F(4amPEG2NHDOTA-Ga)-Ahp-Trp-Gly-Tyr-Asp-D-Pro (cyclo(GG[NMeF][F(4amPEG2NHDOTA-Ga)][Ahp(2)]WGYD[dP]); also: Ga complex) [Example C49]”, the Kd in test [2] is less than 0.012 nM. The half-maximal inhibitory concentration (IC50) in test [3] was 0.005 nM; in test [4], 0.016 nM.

Compound “Gly-Gly-NMePhe-F(4amPEG2NHDOTA-Lu)-Ahp-Trp-Gly-Tyr-Asp-D-Pro (cyclo(GG[NMeF][F(4amPEG2NHDOTA-Lu)][Ahp(2)]WGYD[dP]); also: Lu complex) [Example C15]” gave a dissociation constant Kd in test [2] of 0.013 nM. Besides, the values for the half-maximal inhibitory concentration (IC50) in test [3] and in test [4] were 0.003 nM and 0.009 nM, respectively.

Take “Gly-Gly-NMePhe-F(4amPEG2NHNODAGA-Ga)-hS(Pr)-Trp-Gly-K(COpipzaa)-Asp-D-Pro (cyclo(GG[NMeF][F(4amPEG2NHNODAGA-Ga)][hS(Pr)]WGK(COpipzaa)D[dP]); also: Ga complex) [Example C40]”: in test [2], the Kd was less than 0.02 nM. Moreover, the IC50 in test [3] turned out to be 0.006 nM; in test [4], 0.019 nM.

In test [2], “Gly-Gly-NMePhe-F(4amPEG2NHRDOTAGA-Ga)-hS(Pr)-Trp-Gly-K(COpipzaa)-AsI-D-Pro (cyclo(GG[NMeF][F(4amPEG2NHRDOTAGA-Ga)][hS(Pr)]WGK(COpipzaa)D[dP]); also: Ga complex) [Example C39]” gave a dissociation constant Kd of less than 0.024 nM. The half-inhibitory concentration (IC50) in test [3] came out at 0.015 nM; in test [4] it was 0.051 nM.

These data come from patent US20250090699A1, “FAP TARGETING CYCLIC PEPTIDES AND CONJUGATES THEREOF” (Novartis AG, priority 2023, published 2025).
